# Test results: PMC7041945, “Misfolded proteins bind and activate death receptor 5 to trigger apoptosis during unresolved endoplasmic reticulum stress” (eLife, 2020)
# No end group written: not given here.
# What was measured:
# Conditions in all cases: both partners purified
# [1] = target: T1, Fc-tagged DR5 ectodomain (long isoform) (human, UniProt O14763 56-210); test: peptide or protein array; 18-residue peptides tiled on the array; 500 nM Fc-tagged DR5 ECD in 50 mM HEPES pH 7.2, 250 mM NaCl, 10% glycerol, 1 hr at room temperature; detected with anti-Fc
# T1 construct: DR5 extracellular domain, long isoform; 55 kDa on SDS-PAGE by the legend; also called Fc-tagged DR5 ECD; Fc-tagged DR5L ECD; source: recombinant, generated and purified at Genentech Inc
# [2] = target: T1, Fc-tagged DR5 ectodomain (long isoform); test: pull-down; Fc-tagged ECD held on Dynabeads Protein G, incubated with peptide in 20 mM HEPES pH 7.2, 100 mM KOAc, 0.2% Tween-20, 1 hr at RT; Coomassie-stained SDS-PAGE
# [3] = target: T2, FLAG-tagged DR5 long isoform ECD (human); test: SEC; 25 μM recombinant DR5L ECD alone or pre-incubated overnight at 4°C with 100 or 400 μM fluorescein-conjugated peptide or 25 μM TRAIL; SuperDex200 10/300 GL, 30 mM HEPES pH 7.2, 150 mM NaCl; fractions on SDS-PAGE, fluorescence scan and Coomassie
# T2 construct: human DR5 ECD, long isoform, residues 72-213; Dimer without peptide by cross-linking; multimers with peptide; also called FLAG-tagged DR5L ECD; recombinant DR5L ECD; source: SF21 (baculovirus), secreted, purified (HisTrapFF, SuperDex200); not shown: FLAG, C-terminal, kept
# T2 sequence (chain, as listed by the source): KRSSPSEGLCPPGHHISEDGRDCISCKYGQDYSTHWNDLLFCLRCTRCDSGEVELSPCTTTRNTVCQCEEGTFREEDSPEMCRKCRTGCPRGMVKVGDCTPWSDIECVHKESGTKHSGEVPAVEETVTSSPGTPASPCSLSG
binder,measurement,setting,value
"FTWRYQPEGGRDAISIFHYA (stretch of the ectodomain of human myelin protein zero; The array spots are 18-residue peptides; also called spots C18-C19 of the peptide array; source: synthetic peptide, GenScript (>95% purity); as spots C18-C19 on the peptide array of the MIT Biopolymers Laboratory) [MPZ-ecto peptide]",binding result,[1],binds
"VSDDISFTWRYQPEGGRD (stretch of the ectodomain of human myelin protein zero; source: synthetic peptide, GenScript (>95% purity)) [MPZ-ecto^VD peptide]",binding result,[2],binds
"FTWRYQPEGGRDAISIFHYA (also: fluorescein-conjugated, site not given here, stretch of the ectodomain of human myelin protein zero; also called fluorescein-labeled MPZ-ecto peptide; source: synthetic peptide) [fluorescein-conjugated MPZ-ecto peptide]",binding result,[3],binds
